Laboratory results published in patent EP4703388A1.

Key:
[1] = biological target: human tissue factor (TF) on MDA-MB-231, NCI-H358 and HCT116 cells (human) (UniProt P13726); assay: cell-based or functional assay
[2] = biological target: HuRatTF, human-rat hybrid TF antigen (human-rat hybrid); assay: ELISA, HuRatTF coated, antibody titrated
HuRatTF, human-rat hybrid TF antigen (human-rat hybrid), sequence (chain, as listed by the source limits assumed): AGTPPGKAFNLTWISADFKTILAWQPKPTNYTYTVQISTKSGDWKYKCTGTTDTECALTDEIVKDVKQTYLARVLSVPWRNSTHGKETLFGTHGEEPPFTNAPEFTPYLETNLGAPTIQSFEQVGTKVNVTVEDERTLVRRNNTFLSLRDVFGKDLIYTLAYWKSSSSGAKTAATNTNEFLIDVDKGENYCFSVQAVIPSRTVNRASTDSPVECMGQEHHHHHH

human tissue factor (TF) on MDA-MB-231, NCI-H358 and HCT116 cells (human), sequence (P13726 33-295): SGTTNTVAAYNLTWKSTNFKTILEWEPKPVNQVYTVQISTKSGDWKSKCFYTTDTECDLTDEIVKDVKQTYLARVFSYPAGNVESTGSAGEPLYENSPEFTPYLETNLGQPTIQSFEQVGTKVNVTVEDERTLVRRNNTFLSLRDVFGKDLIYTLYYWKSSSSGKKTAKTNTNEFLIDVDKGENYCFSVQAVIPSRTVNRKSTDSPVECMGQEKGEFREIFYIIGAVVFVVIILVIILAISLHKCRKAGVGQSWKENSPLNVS

Inhibition rate (%), Factor-VII-Human Chromogenic-Activity blood coagulation pathway assay (FVIIa, MDA-MB-231 cells, FX; antibody 20 µg/mL) [1]: 92.8%
Maximum (OD450 nm) [2]: 0.0585 OD450 nm
Substance: TF011 (monoclonal antibody sequence of tisotumab vedotin)
